# From patent US20040248202A1 (WISCONSIN ALUMNI RESEARCH FOUNDATION, published 2004)
# B1: BR-Rhodopsin loop 3 chimera, Rhodopsin Insert Q225 to T251 (3D) (other)
# chain: QAQITGRPEWIWLALGTALMGLGTLYFLVKGMGVSDPDAKKFYAITTLVPAIAFTMYLSMLLGYGLTMVPFGGEQNPIYWARYADWLFTTPLLLLDLALLVDADQGTILALVGADGIMIGTGLVGALTKVYSYRFVWWAISTAAMLYILYVLFFGFTQLVFTVKEAAAQQQESATTQKAEKEVTVASTFKVLRNVTVVLWSAYPVVWLIGSEGAGIVPLNIETLLFMVLDVSAKVGFGLILLRSRAIFGEAEAPEPSAGDGAAATSD
# B2: BR-Rhodopsin loop 3 chimera, Rhodopsin Insert Y223 to M253 (3C) (other)
# chain: QAQITGRPEWIWLALGTALMGLGTLYFLVKGMGVSDPDAKKFYAITTLVPAIAFTMYLSMLLGYGLTMVPFGGEQNPIYWARYADWLFTTPLLLLDLALLVDADQGTILALVGADGIMIGTGLVGALTKVYSYRFVWWAISTAAMLYILYVLFFGFTYGQLVFTVKEAAAQQQESATTQKAEKEVTRMVASTFKVLRNVTVVLWSAYPVVWLIGSEGAGIVPLNIETLLFMVLDVSAKVGFGLILLRSRAIFGEAEAPEPSAGDGAAATSD
# B3: BR-Rhodopsin loop 3 chimera, Rhodopsin Insert G224 to M253 (3E) (other)
# chain: QAQITGRPEWIWLALGTALMGLGTLYFLVKGMGVSDPDAKKFYAITTLVPAIAFTMYLSMLLGYGLTMVPFGGEQNPIYWARYADWLFTTPLLLLDLALLVDADQGTILALVGADGIMIGTGLVGALTKVYSYRFVWWAISTAAMLYILYVLFFGFTGQLVFTVKEAAAQQQESATTQKAEKEVTRMVASTFKVLRNVTVVLWSAYPVVWLIGSEGAGIVPLNIETLLFMVLDVSAKVGFGLILLRSRAIFGEAEAPEPSAGDGAAATSD
# B4: BR-Rhodopsin loop 3 chimera, Rhodopsin Insert Y223 to T251 (3B) (other)
# chain: QAQITGRPEWIWLALGTALMGLGTLYFLVKGMGVSDPDAKKFYAITTLVPAIAFTMYLSMLLGYGLTMVPFGGEQNPIYWARYADWLFTTPLLLLDLALLVDADQGTILALVGADGIMIGTGLVGALTKVYSYRFVWWAISTAAMLYILYVLFFGFTYGQLVFTVKEAAAQQQESATTQKAEKEVTVASTFKVLRNVTVVLWSAYPVVWLIGSEGAGIVPLNIETLLFMVLDVSAKVGFGLILLRSRAIFGEAEAPEPSAGDGAAATSD
# B5: bacteriorhodopsin (other)
# chain: QAQITGRPEWIWLALGTALMGLGTLYFLVKGMGVSDPDAKKFYAITTLVPAIAFTMYLSMLLGYGLTMVPFGGEQNPIYWARYADWLFTTPLLLLDLALLVDADQGTILALVGADGIMIGTGLVGALTKVYSYRFVWWAISTAAMLYILYVLFFGFTSKAESMRPEVASTFKVLRNVTVVLWSAYPVVWLIGSEGAGIVPLNIETLLFMVLDVSAKVGFGLILLRSRAIFGEAEAPEPSAGDGAAATSD
# B6: BR-Rhodopsin loop 3 chimera, Rhodopsin Insert Q225 to R252 (3H) (other)
# chain: QAQITGRPEWIWLALGTALMGLGTLYFLVKGMGVSDPDAKKFYAITTLVPAIAFTMYLSMLLGYGLTMVPFGGEQNPIYWARYADWLFTTPLLLLDLALLVDADQGTILALVGADGIMIGTGLVGALTKVYSYRFVWWAISTAAMLYILYVLFFGFTQLVFTVKEAAAQQQESATTQKAEKEVTRVASTFKVLRNVTVVLWSAYPVVWLIGSEGAGIVPLNIETLLFMVLDVSAKVGFGLILLRSRAIFGEAEAPEPSAGDGAAATSD
# B7: BR-Rhodopsin loop 3 chimera, Rhodopsin Insert Y223 to R252 (3G) (other)
# chain: QAQITGRPEWIWLALGTALMGLGTLYFLVKGMGVSDPDAKKFYAITTLVPAIAFTMYLSMLLGYGLTMVPFGGEQNPIYWARYADWLFTTPLLLLDLALLVDADQGTILALVGADGIMIGTGLVGALTKVYSYRFVWWAISTAAMLYILYVLFFGFTYGQLVFTVKEAAAQQQESATTQKAEKEVTRVASTFKVLRNVTVVLWSAYPVVWLIGSEGAGIVPLNIETLLFMVLDVSAKVGFGLILLRSRAIFGEAEAPEPSAGDGAAATSD
# Biological target: holotransducin
# Assay: cell-based or functional assay
Activation (x100%) Over Basal Exchange,"Specific counts (Lattice Form), 10 Minutes, GTPyS uptake [specific counts]",Binder
1 x100%,53400,B1
1.44 x100%,,B2
1.46 x100%,78400,B3
1.17 x100%,62800,B4

# Biological target: holotransducin
# Assay: cell-based or functional assay
# Remark: another data set of the same source
"Specific counts (Lattice Form) (at 30 min), 35S-GTPyS uptake [specific counts]",Activation (Fold increase) over BR [fold],Activation (Fold increase) over Basal [fold],Binder
118000,,,B5
193000,1.6,1.17,B6
262000,2.22,1.6,B2
183000,1.55,1.1,B7

# Biological target: holotransducin
# Assay: cell-based or functional assay
# Remark: another data set of the same source
row,"Activation (3C) over Basal Exchange, 100 uM GDP [fold]",Binder
1,1.67,B2
